Source: publication PMC6105727, “Architecture of the native major royal jelly protein 1 oligomer” (Nature Communications, 2018)

Experiments:
[1] = target: T1, MRJP1 oligomer (MRJP1_4-apisimin4-24-methylenecholesterol8 complex) (Apis mellifera, UniProt O18330+Q8ISL8); test: X-ray crystal structure at […] Å; co-purified ligand identified by GC-MS and NMR; type: binding; settings: co-purified natural ligand; eight per complex (four per asymmetric unit); inner two contact MRJP1 and apisimin, outer two apisimin only; crystals at pH 8.5
T1 construct: native complex purified from royal jelly; mature chains without signal peptides; partly deglycosylated with PNGase F (NAG left at Asn144); modelled MRJP1 23-432 and 28-432, apisimin 37-77 and 36-78; 254 kDa by AUC
T1 sequence (O18330 20-432): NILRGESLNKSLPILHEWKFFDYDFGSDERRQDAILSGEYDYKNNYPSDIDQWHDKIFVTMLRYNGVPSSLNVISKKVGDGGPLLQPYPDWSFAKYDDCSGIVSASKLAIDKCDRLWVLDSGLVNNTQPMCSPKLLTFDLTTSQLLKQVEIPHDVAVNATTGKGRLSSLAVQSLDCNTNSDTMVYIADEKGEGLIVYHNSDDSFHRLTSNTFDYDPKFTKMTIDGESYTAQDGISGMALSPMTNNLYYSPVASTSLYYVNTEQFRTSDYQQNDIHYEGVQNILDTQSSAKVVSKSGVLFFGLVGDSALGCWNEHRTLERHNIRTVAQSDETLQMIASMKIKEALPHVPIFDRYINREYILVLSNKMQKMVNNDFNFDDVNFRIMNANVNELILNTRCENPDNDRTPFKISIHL
T1 sequence (Q8ISL8 25-78): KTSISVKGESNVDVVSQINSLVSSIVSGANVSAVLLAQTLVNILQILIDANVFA

[2] = target: T2, Major royal jelly protein 1 (Apis mellifera, UniProt O18330 20-432, N-acetylglucosamine linked to Asn144 (seen in the crystal after partial deglycosylation); native glycoprotein); test: SEC; gel filtration of royal jelly collected from the nectar of different plants and from different honeybee species (Supplementary Fig. 10A, B)
T2 construct: Major royal jelly protein 1 (MRJP1) of the honeybee Apis mellifera; mature protein without N-terminal signal peptide; modelled residues 23-432 (protomer A) and 28-432 (protomer B); Native protein; occurs in royal jelly as a monomer fraction and as an oligomer with apisimin and 24-methylenecholesterol; also called MRJP1; royalactin (the monomer); source: purified from royal jelly (ultrafiltration, …)
T2 sequence (looked up): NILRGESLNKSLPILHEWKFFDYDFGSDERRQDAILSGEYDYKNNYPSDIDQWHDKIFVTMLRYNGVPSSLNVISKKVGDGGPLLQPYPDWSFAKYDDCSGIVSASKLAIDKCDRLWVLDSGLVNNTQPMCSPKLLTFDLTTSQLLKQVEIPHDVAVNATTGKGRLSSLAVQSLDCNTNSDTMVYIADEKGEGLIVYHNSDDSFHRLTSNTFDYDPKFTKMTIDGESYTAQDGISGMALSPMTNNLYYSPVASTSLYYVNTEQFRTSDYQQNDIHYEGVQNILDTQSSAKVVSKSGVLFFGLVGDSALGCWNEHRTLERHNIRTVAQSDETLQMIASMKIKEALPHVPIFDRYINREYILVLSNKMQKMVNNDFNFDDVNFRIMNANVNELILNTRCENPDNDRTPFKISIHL

[3] = target: T2, Major royal jelly protein 1; test: crystal structure; native MRJP1 oligomer from royal jelly, deglycosylated with PNGase F; hanging drop, 0.1 M Tris pH 8.5, 2.0 M ammonium phosphate; 2.65 Å, space group H32
[4] = target: T2, Major royal jelly protein 1; test: SEC + other: SAXS; purified native MRJP1 oligomer at near-neutral pH; SAXS in 20 mM sodium phosphate pH 8, 150 mM NaCl, 0.1-10 mg/mL
[5] = target: Major royal jelly protein 1 of Apis cerana (Apis cerana); test: SEC; gel filtration of royal jelly collected from the nectar of different plants and from different honeybee species (Supplementary Fig. 10A, B)
[6] = target: the molecule itself; test: crystal structure; native MRJP1 oligomer from royal jelly, deglycosylated with PNGase F; hanging drop, 0.1 M Tris pH 8.5, 2.0 M ammonium phosphate; 2.65 Å, space group H32

For `C=C(CC[C@@H](C)[C@H]1CC[C@H]2[C@@H]3CC=C4C[C@@H](O)CC[C@]4(C)[C@H]3CC[C@]12C)C(C)C` [Osl, 24-methylenecholesterol], the “X-ray crystal structure at 2.65 Å; co-purified ligand identified by GC-MS and NM” value [1] was “The asymmetric unit contains two MRJP1, two apisimin, four unexpected 24-methylenecholesterol (ostreasterol, Osl)”.

Work on “Major royal jelly protein 1 (from UniProt O18330 20-432) (natural protein)” yielded a stoichiometry N [2] of 4, a stoichiometry N [3] of 4 and a stoichiometry N [4] of 4.

“Major royal jelly protein 1 of Apis cerana (natural protein)” showed a stoichiometry N [5] of 4.

B1: apisimin (peptide, UniProt Q8ISL8 25-78, looked up)
chain: KTSISVKGESNVDVVSQINSLVSSIVSGANVSAVLLAQTLVNILQILIDANVFA
notes: Apisimin, serine-valine-rich peptide of the honeybee; mature protein without N-terminal signal peptide; modelled residues 37-77 (protomer C) and 36-78 (protomer D); source: co-purified with the native MRJP1 oligomer from royal jelly
B1: binds [6]; binds ([3]; both partners purified).
